Assay results published in article PMC12152161, “Molecular basis for assembly and activation of the Hook3 − KIF1C complex-dependent transport machinery” (EMBO Reports, 2025).

B1: His10 − MBP−Hook3(553–624) (domain or fragment, UniProt Q86VS8 553-624, looked up)
chain: EKLHEANNELQKKRAIIEDLEPRFNNSSLKIEELQEALRKKEEEMKQMEERYKKYLEKAKSVIRTLDPKQNQ
notes: Tagged form used in native gels and ITC; also called Hook3CC3; source: E. coli BL21(DE3) RIL, purified (Ni-NTA, size-exclusion chromatography); not shown: His10, N-terminal, kept; MBP, N-terminal, kept
B2: Hook3(553–624) (domain or fragment, UniProt Q86VS8 553-624, looked up)
chain: B1 chain
notes: Untagged form used in the SEC replacement analysis and in the crystals; parallel coiled-coil homodimer in both crystal structures; A selenomethionine-substituted form was also made for the apo structure; also called Hook3CC3; source: E. coli BL21(DE3) RIL, purified (Ni-NTA, size-exclusion chromatography, tag removed with TEV protease); not shown: His10, N-terminal, cleaved; MBP, N-terminal, …
B3: full-length Hook3(WT)−Myc−FuRed (natural protein, UniProt Q86VS8 1-718, looked up)
chain: MFSVESLERAELCESLLTWIQTFNVDAPCQTVEDLTNGVVMAQVLQKIDPAYFDENWLNRIKTEVGDNWRLKISNLKKILKGILDYNHEILGQQINDFTLPDVNLIGEHSDAAELGRMLQLILGCAVNCEQKQEYIQAIMMMEESVQHVVMTAIQELMSKESPVSAGNDAYVDLDRQLKKTTEELNEALSAKEEIAQRCHELDMQVAALQEEKSSLLAENQVLMERLNQSDSIEDPNSPAGRRHLQLQTQLEQLQEETFRLEAAKDDYRIRCEELEKEISELRQQNDELTTLADEAQSLKDEIDVLRHSSDKVSKLEGQVESYKKKLEDLGDLRRQVKLLEEKNTMYMQNTVSLEEELRKANAARSQLETYKRQVVELQNRLSEESKKADKLDFEYKRLKEKVDSLQKEKDRLRTERDSLKETIEELRCVQAQEGQLTTQGLMPLGSQESSDSLAAEIVTPEIREKLIRLQHENKMLKLNQEGSDNEKIALLQSLLDDANLRKNELETENRLVNQRLLEVQSQVEELQKSLQDQGSKAEDSVLLKKKLEEHLEKLHEANNELQKKRAIIEDLEPRFNNSSLKIEELQEALRKKEEEMKQMEERYKKYLEKAKSVIRTLDPKQNQGAAPEIQALKNQLQERDRLFHSLEKEYEKTKSQREMEEKYIVSAWYNMGMTLHKKAAEDRLASTGSGQSFLARQRQATSSRRSYPGHVQPATAR
B4: His10 − MBP − KIF1C(714–809) (domain or fragment, UniProt O43896 714-809, looked up)
chain: PSSGKRRAPRRVYQIPQRRRLQGKDPRWATMADLKMQAVKEICYEVALADFRHGRAEIEALAALKMRELCRTYGKPDGPGDAWRAVARDVWDTVGE
notes: Tag kept, as named in the legends and methods of the native gel, ITC and SEC experiments; also called KIF1C_(H3BD); source: E. coli BL21(DE3) RIL, purified (Ni-NTA, size-exclusion chromatography); not shown: His10, N-terminal, kept; MBP, N-terminal, kept

What was measured:
[1] = target: B4; assay: ITC; 0.8 mM His10−MBP−Hook3(553–624) or His10−MBP−PTPN21(19–308) titrated into 0.04 mM His10−MBP−KIF1C(714–809); 25 °C; 50 mM Tris-HCl pH 7.5, 500 mM NaCl, 3 mM β-mercaptoethanol; MicroCal VP-ITC; conditions: both partners purified
[2] = target: the molecule itself; assay: crystal structure; Hook3(553–624) − KIF1C(714–809) complex, 30 mg/mL, sitting drop at 4 °C, 0.1 M sodium citrate/citric acid pH 5.5, 20% PEG 4000, 20% isopropanol; 3.0 Å
[3] = target: T1, full-length KIF1C(WT)−Flag−EGFP (UniProt O43896 1-1103); assay: cell-based or functional assay
T1 sequence (looked up): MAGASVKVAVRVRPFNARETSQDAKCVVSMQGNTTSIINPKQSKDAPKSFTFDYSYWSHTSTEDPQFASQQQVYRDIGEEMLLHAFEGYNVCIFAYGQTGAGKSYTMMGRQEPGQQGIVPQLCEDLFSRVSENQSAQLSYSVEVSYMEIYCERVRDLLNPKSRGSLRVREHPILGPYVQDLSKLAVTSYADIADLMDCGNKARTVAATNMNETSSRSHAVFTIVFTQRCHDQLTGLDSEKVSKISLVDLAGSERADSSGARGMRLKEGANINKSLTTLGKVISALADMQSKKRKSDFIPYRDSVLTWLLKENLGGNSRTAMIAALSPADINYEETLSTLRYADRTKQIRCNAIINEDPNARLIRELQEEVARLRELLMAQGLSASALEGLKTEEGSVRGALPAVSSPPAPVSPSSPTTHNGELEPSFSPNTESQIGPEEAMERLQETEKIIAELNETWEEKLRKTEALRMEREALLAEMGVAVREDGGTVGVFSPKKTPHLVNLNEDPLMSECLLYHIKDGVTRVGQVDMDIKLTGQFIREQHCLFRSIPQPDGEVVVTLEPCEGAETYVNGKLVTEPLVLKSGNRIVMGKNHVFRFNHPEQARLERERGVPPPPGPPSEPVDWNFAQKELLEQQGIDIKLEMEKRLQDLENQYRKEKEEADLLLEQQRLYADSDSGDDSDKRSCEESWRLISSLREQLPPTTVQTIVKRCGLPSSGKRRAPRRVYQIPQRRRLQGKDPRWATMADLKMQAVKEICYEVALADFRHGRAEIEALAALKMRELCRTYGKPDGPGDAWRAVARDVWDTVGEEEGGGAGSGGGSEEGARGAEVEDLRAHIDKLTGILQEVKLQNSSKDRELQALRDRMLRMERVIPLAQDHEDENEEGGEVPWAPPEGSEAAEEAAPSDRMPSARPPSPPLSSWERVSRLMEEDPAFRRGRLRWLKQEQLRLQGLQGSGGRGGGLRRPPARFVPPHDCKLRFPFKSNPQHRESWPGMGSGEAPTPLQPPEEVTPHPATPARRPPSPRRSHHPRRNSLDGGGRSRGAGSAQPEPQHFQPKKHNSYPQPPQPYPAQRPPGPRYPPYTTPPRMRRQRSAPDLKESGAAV

[4] = target: T2, His10 − MBP − PTPN21(19–308) (UniProt Q16825 19-308); assay: ITC; 0.8 mM His10−MBP−Hook3(553–624) or His10−MBP−PTPN21(19–308) titrated into 0.04 mM His10−MBP−KIF1C(714–809); 25 °C; 50 mM Tris-HCl pH 7.5, 500 mM NaCl, 3 mM β-mercaptoethanol; MicroCal VP-ITC; conditions: both partners purified
T2 construct: Tagged form used in native gels and ITC; also called PTPN21_(FERM); FERM domain of PTPN21; source: E. coli BL21(DE3) RIL, purified (Ni-NTA, size-exclusion chromatography); not shown: His10, N-terminal, kept; MBP, N-terminal, kept
T2 sequence (looked up): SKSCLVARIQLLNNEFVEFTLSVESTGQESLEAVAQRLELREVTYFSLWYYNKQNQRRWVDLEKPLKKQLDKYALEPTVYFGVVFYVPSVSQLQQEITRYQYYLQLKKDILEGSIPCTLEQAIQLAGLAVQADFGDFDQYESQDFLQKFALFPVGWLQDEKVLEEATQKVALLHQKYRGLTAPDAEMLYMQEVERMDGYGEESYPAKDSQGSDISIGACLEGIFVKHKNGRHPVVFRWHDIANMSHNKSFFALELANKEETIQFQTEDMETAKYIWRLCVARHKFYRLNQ

[5] = target: T3, His10 − MBP−Hook3(553–718) (UniProt Q86VS8 553-718); assay: native gel or EMSA; His10−MBP-tagged recombinant proteins alone or mixed (10 µM; molar ratio 1:1), incubated 16 h at 4 °C, 10% native gel, 120 V for 2 h on ice, Coomassie staining; conditions: both partners purified
T3 construct: source: E. coli BL21(DE3) RIL, purified (Ni-NTA, size-exclusion chromatography); not shown: His10, N-terminal, kept; MBP, N-terminal, kept
T3 sequence (looked up): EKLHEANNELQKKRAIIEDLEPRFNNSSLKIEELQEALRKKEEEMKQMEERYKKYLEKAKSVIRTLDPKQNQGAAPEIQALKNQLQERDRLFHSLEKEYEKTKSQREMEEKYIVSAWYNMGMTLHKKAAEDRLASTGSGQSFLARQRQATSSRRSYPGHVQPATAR

## B1
[1]
  Kd: 1.58 µM

## B2
[2]
  stoichiometry N: 2

## B3
[3]
  tail/cytoplasm ratio of Hook3−Myc−FuRed upon co-expression in RPE1 cells, 16 h post transfection: 1.3 tail/cytoplasm ratio
  tail/cytoplasm ratio of KIF1C−Flag−EGFP upon co-expression in RPE1 cells, 16 h post transfection: 3.6 tail/cytoplasm ratio

## B4
[4]
  Kd: 5.15 µM
[5]
  binding result: binds
